Data published in publication PMC6593972.

Target: fluorescein isothiocyanate (FITC)-casein
Assay: fluorescence polarisation; fluorescence anisotropy; FITC-casein 100 nM, ClpB (WT or mutant) varied; Reaction buffer, 10 min at 30°C, 2 mM ATP; black 384 well plates; Kd by nonlinear regression

Sequence of fluorescein isothiocyanate (FITC)-casein (P02662 16-214): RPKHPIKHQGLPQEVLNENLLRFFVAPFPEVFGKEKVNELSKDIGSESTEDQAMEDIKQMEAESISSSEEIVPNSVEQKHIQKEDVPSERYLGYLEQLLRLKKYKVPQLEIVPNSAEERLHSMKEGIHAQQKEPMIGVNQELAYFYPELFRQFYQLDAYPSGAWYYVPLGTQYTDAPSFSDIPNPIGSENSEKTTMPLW
Sequence of ClpB wild-type (P63284 whole entry): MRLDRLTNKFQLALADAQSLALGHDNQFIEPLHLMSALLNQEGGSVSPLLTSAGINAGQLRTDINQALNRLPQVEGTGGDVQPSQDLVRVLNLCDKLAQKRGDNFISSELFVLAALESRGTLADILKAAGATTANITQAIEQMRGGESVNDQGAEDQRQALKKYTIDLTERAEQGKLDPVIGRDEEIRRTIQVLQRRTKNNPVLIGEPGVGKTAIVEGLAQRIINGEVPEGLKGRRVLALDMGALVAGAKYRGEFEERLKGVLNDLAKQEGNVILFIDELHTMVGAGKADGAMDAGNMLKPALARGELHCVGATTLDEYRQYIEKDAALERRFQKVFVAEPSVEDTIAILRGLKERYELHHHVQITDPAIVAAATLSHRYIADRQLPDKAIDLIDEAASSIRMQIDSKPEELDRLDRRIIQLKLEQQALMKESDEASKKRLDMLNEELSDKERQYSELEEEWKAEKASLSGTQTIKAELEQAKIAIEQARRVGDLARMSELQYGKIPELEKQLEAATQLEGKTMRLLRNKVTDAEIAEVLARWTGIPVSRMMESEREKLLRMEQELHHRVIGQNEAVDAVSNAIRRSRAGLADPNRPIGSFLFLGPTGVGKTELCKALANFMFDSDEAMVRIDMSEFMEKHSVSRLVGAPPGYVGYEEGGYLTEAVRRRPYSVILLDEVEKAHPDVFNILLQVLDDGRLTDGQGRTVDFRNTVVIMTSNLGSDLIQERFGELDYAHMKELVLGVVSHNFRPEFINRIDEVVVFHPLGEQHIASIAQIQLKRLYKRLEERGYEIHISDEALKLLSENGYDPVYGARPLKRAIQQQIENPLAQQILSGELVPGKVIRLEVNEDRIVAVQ

Substance	Kd [nM]
ClpB wild-type (from UniProt P63284 1-857) (natural protein)	330
ClpB-K476C (from UniProt P63284 1-857) (natural protein)	220
